# Target: Raytide (synthetic peptide substrate)
protein,measurement,value
T7 tagged Lyp1 (protein) MDQREILQKFLDEAQSKKITKEEFANEFLKLKRQSTKYKADKTYPTTVAENAKNIKKNRYKDILPYDYSRVELSLITSDEDSSYINANFIKGVYGPKAYIATQGPLSTTLLDFWRMIWEYSVLIIVMACMEYEMGKKKCERYWAEPGEMQLEFGPFSVSCEAEKRKSDYIIRTLKVKFNSETRTIYQFHYKNWPDHDVPSSIDPILELIWDVRCYQEDDSVPICIHCSAGCGRTGVICAIVDYTWMLLKDGIIPENFSVFSLIREMRTQRPSLVQTQEQYELVYNAVLELFKRQMDVIRDKHSGTESQAKHCIPEKNHTLQADSYSPNLPKSTTKAAKMMNQQRTKMEIKESSSFDFRTSEISAKEELVLHPAKSSTSFDFLELNYSFDKNADTTMKWQTKAFPIVGEPLQKHQSLDLGSLLFEGCSNSKPVNAAGRYFNSKVPITRTKSTPFELIQQRETKEVDSKENFSYLESQPHDSCFVEMQAQKVMHVSSAELNYSLPYDSKHQIRNASNVKHHDSSALGVYSYIPLVENPYFSSWPPSGTSSKMSLDLPEKQDGTVFPSSLLPTSSTSLFSYYNSHSSLSLNSPTNISSLLNQESAVLATAPRIDDEIPPPLPVRTPESFIVVEEAGEFSPNVPKSLSSAVKVKIGTSLEWGGTSEPKKFDDSVILRPSKSVKLRSPKSELHQDRSSPPPPLPERTLESFFLADEDCMQAQSIETYSTSYPDTMENSTSSKQTLKTPGKSFTRSKSLKILRNMKKSICNSCPPNKPAESVQSNNSSSFLNFGFANRFSKPKGPRNPPPTWNI,"33P release from labelled Raytide, in vitro phosphatase assay with immunoprecipitates",a seven fold increase in ^33P release from the substrate incubated with Lyp immunoprecipitates compared to control immunoprecipitates
